The record followed here is US20260103719.

Data set [1] deals with SlSuSy3^S11A (SuSy3 protein with the serine at position 11 mutated to alanine).
Data set [2] has as its target SuSy3-HIS protein (tomato sucrose synthase SuSy3, Solyc07g042550.2.1, His-tagged, expressed in vitro and purified).

Chain of SuSy3-HIS protein (tomato sucrose synthase SuSy3, Solyc07g042550.2.1, His-tagged, expressed in vitro and purified) (chain, as listed by the source): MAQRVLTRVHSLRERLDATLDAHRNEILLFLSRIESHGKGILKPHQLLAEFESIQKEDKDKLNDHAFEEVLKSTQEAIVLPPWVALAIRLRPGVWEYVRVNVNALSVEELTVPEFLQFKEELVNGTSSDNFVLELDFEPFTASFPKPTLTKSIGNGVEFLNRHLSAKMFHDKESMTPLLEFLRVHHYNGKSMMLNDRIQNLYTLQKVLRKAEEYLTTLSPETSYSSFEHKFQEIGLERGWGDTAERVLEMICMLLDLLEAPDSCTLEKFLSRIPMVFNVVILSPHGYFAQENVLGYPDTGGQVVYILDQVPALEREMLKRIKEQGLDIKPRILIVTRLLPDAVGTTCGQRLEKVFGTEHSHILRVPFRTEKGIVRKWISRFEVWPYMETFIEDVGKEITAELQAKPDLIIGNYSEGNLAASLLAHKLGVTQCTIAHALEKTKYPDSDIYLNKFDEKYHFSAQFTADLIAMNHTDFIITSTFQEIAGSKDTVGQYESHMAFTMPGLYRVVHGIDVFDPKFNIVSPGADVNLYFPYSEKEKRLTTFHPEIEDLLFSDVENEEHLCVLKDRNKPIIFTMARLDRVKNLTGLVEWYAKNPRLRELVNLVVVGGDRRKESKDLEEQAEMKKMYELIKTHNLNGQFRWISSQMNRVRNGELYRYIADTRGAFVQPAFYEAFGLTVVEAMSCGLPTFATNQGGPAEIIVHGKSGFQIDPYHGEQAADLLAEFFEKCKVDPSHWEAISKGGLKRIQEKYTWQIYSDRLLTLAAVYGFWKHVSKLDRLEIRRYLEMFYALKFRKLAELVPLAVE
Chain of SlSuSy3^S11A (SuSy3 protein with the serine at position 11 mutated to alanine) (chain, as listed by the source S11A): as the sequence (chain, as listed by the source) above, with S11A counted along it

B1: CDPK8-HIS protein (tomato calcium-dependent protein kinase 8, Solyc11g065660, His-tagged, expressed in vitro and purified) (protein)
chain: MGNCCGTPGNSSENKKKKNKPNPFALDYGATQASGGDGNKLVVLKDPTGHNIQEKYDLGCELGRGEFGVTYLCTDVDTGDKYACKSISKKKLRTAVDIDDVRREVEIMKHLPKHPNIVTLKDTYEDDNAVHIVMELCEGGELFDRIVARGHYTERAAAVIMKTIVEVVQMCHMHGVMHRDLKPENFLFGNKKETAPLKAIDFGLSVFFKPGERFNEIVGSPYYMAPEVLKRNYGPEVDVWSAGVILYILLCGVPPFWAETEQGVAQAIIRSVVDFKRDPWPKVSDNAKDLVKKMLDPDPTRRLTAQQVLEHTWLQNIKKAPNVSLGETVKARLKQFSVMNKLKKRALTIMAEFLSAEEVAGMKDAFDMMDTGKKGKINLGELKNGLQKLGHQIPDVDLQILMEAADVDGDGSLNYGEFVAVSVHLRKMANDEHLHKAFSVFDRDQSGYIEIEELRSALSDEDGGNSEEVINAIMHDVDTDKDGRISYEEFAAMMKAGTDWRKASRQYSRERFNSLSLKLMRDGSIQVGKEEGR
On to B1, for which the “in vitro phosphorylation assay (autoradiography)” value in data set [1] is on record as “there is no autoradiographic band, indicating that CDPK8 cannot phosphorylate SISuSy3^S11A”. In data set [2], the “in vitro phosphorylation (gamma-32P-ATP, SDS-PAGE, autoradiography)” value was “the CDPK8 protein itself has kinase activity and can phosphorylate the SuSy3 protein”; the “in vitro phosphorylation assay (autoradiography)” value was “CDPK8 can phosphorylate the serine at position 11 (S11) of the SuSy3 protein”; the “mass spectrometry of phosphorylated residues after co-incubation” value was 14 amino acid residues on the SuSy3 protein can be phosphorylated by CDPK8 protein, and the sites are T7, S11, T19, S152, S165, S174, T176, S191, S219, S360, T430, S535, T543, and S706 in sequence.

B2: mCDPK8-His protein without kinase activity (CDPK8 lacking two key amino acids) (protein)
chain: MGNCCGTPGNSSENKKKKNKPNPFALDYGATQASGGDGNKLVVLKDPTGHNIQEKYDLGCERGEFGVTYLCTDVDTGDKYACKSISKKKLRTAVDIDDVRREVEIMKHLPKHPNIVTLKDTYEDDNAVHIVMELCEGGELFDRIVARGHYTERAAAVIMKTIVEVVQMCHMHGVMHRDLKPENFLFGNKKETAPLKAIDFGLSVFFKPGERFNEIVGSPYYMAPEVLKRNYGPEVDVWSAGVILYILLCGVPPFWAETEQGVAQAIIRSVVDFKRDPWPKVSDNAKDLVKKMLDPDPTRRLTAQQVLEHTWLQNIKKAPNVSLGETVKARLKQFSVMNKLKKRALTIMAEFLSAEEVAGMKDAFDMMDTGKKGKINLGELKNGLQKLGHQIPDVDLQILMEAADVDGDGSLNYGEFVAVSVHLRKMANDEHLHKAFSVFDRDQSGYIEIEELRSALSDEDGGNSEEVINAIMHDVDTDKDGRISYEEFAAMMKAGTDWRKASRQYSRERFNSLSLKLMRDGSIQVGKEEGR
Turning to B2, the “in vitro phosphorylation (gamma-32P-ATP, SDS-PAGE, autoradiography)” value in data set [2] is “the mCDPK8 protein lacking two key amino acids has no kinase activity and cannot phosphorylate the SuSy3 protein”.
